± gives the standard deviation of the averaged measurements.
System: Saccharomyces cerevisiae
Experiment: protein stability index of tFT-peptide fusion (C-terminal peptide) (PSI (0-1 scale)); higher = more stable (slower turnover)
Conditions: genetic background: das1 deletion; temperature: 30 C
Description: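 MPS profiling in S. cerevisiae of the tFT-X12 degron library: putative degron peptides plus stable controls, 12 aa, fused to the C-terminus of a sfGFP-mCherry timer. Cells are FACS-sorted into 8 mCherry/sfGFP bins and deep-sequenced. PSI runs from 0 (unstable) to 1 (stable). Backgrounds are wild type, das1Δ and doa10Δ at 30 °C, and wild type, das1Δ, cdc34-1 and cdc53-1 at 37 °C; 2-3 technical replicates each.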
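Further: PSI is a weighted mean of sequencing reads over stability bins, variants kept only with over 10 reads, mCherry proximal and sfGFP distal, peptide attached via GGGS linker.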

Sequence	protein stability index
PSPVRSSYASTL	0.6396 ± 0.0033
PSVRCVVACFIN	0.464 ± 0.02
PVGRSVFFVWFL	0.587 ± 0.019
PVKGTMIKAKNT	0.607 ± 0.026
PVLSLPPLSSPP	0.682 ± 0.0089
PVLYSFSLWIHL	0.299 ± 0.028
PVWLFLVRAIKG	0.321 ± 0.028
PWLLHTPLSLVF	0.335 ± 0.017
QCLSYFFPVPVA	0.186 ± 0.03
QGRRKEKAVTLN	0.648 ± 0.041
QKGLFYCVILYC	0.214 ± 0.027
RDGAHFLLILVC	0.176 ± 0.033
RFFFSSFPLLIS	0.349 ± 0.047
RFLVVVRFYWRC	0.245 ± 0.028
RGFIYCSFVVRL	0.328 ± 0.025
RGLLLKILIASG	0.305 ± 0.019
RGVGSGGLEGIG	0.5178 ± 0.001
RGVPPPPWTPPP	0.6792 ± 0.0067
RIWRLLIIIIKK	0.236 ± 0.085
RKRKKISEIIAI	0.589 ± 0.036
RLPFPVVLFLLF	0.387 ± 0.041
RLVMAVRVAAGG	0.347 ± 0.033
RMLSLFFPLRTL	0.624 ± 0.02
RNWVVDGWRRFP	0.684 ± 0.019
RPCLSALRFRFF	0.655 ± 0.042
RPHPLHIPRRLA	0.684 ± 0.01

Sequence	protein stability index
RQINEKKKLYMI	0.639 ± 0.024
RRGLIFFLCCPA	0.336 ± 0.027
RRLYERNKNNKQ	0.611 ± 0.036
RRRRGGQSPALR	0.71 ± 0.032
RRTTIFDTKEPP	0.523 ± 0.062
RRVFPLIIVLLF	0.172 ± 0.031
RSCKSIRGIFVC	0.543 ± 0.018
RSFPCITVFIRA	0.328 ± 0.036
RSKWEKLDKIVS	0.629 ± 0.051
RVCVFVLFGLCF	0.324 ± 0.04
RWGLCFVHVTMF	0.149 ± 0.046
RWRLWVGWWVVG	0.456 ± 0.022
RYRVRIVVFGLV	0.365 ± 0.015
SCFCFRVLLCSF	0.336 ± 0.023
SCLFMLFPLVSV	0.421 ± 0.031
SCLLVVVSTSGN	0.404 ± 0.043
SFFVCVRVFGCC	0.255 ± 0.042
SFFWAMSLLCFV	0.443 ± 0.025
SFGLICFLILCG	0.206 ± 0.03
SFIVGYRWNNRN	0.647 ± 0.015
SFVVVFTFFFGC	0.239 ± 0.032
SGFLRFRGLVCY	0.288 ± 0.043
SGFWVSVDVFFV	0.155 ± 0.03
SGLPLVILFLCL	0.435 ± 0.028
SGRATSSRTSEP	0.661 ± 0.01
SGWGCRMVVCAG	0.186 ± 0.027

Sequence	protein stability index
SHPAPPSPPPSP	0.384 ± 0.025
SILFSYFCFFLL	0.441 ± 0.031
SLCPFLCILCFG	0.28 ± 0.023
SLCVVIFFSSIT	0.274 ± 0.031
SLPVSPLVRLLA	0.486 ± 0.026
SLRICACMTVSW	0.404 ± 0.086
SLSALPRPPRLL	0.673 ± 0.021
SPPHSPSALPPP	0.656 ± 0.023
SPWSIHLILLQV	0.265 ± 0.033
SQCVVYLSVRFS	0.34 ± 0.028
SQKKKIKKYKET	0.644 ± 0.032
SREQANTVYRLI	0.631 ± 0.018
SRFFSCCVFPSF	0.67 ± 0.037
SRKRIVALMLSG	0.615 ± 0.029
SRNSSRYLLLVS	0.52 ± 0.046
SRVGAGVVRGVG	0.498 ± 0.007
SRVHHLWAILVP	0.238 ± 0.034
SSGAVGLVIVVC	0.214 ± 0.049
SSGRLRFISRIH	0.656 ± 0.048
SSVFLGWLIVCY	0.173 ± 0.043
SSVGLFVLLCLV	0.271 ± 0.039
STVGAWGRVGEG	0.418 ± 0.035
SVFFRPVLICCA	0.0774 ± 0.01
SVLAIWLTVTLK	0.146 ± 0.016
SVLVSVVLFVRS	0.176 ± 0.019
SVSMYPKPHLIC	0.596 ± 0.034

Same assay, conditions: genetic background: das1 deletion; temperature: 37 C

Sequence	protein stability index
PSPVRSSYASTL	0.7222 ± 0.0029
PSVRCVVACFIN	0.576 ± 0.0068
PVGRSVFFVWFL	0.744 ± 0.029
PVKGTMIKAKNT	0.71 ± 0.0026
PVLSLPPLSSPP	0.7244 ± 0.0058
PVLYSFSLWIHL	0.457 ± 0.011
PVWLFLVRAIKG	0.5125 ± 0.002
PWLLHTPLSLVF	0.403 ± 0.0063
QCLSYFFPVPVA	0.227 ± 0.0065
QGRRKEKAVTLN	0.729 ± 0.019
QKGLFYCVILYC	0.3829 ± 0.0019
RDGAHFLLILVC	0.2536 ± 0.0015
RFFFSSFPLLIS	0.471 ± 0.014
RFLVVVRFYWRC	0.441 ± 0.0079
RGFIYCSFVVRL	0.532 ± 0.012
RGLLLKILIASG	0.48 ± 0.0095
RGVGSGGLEGIG	0.543 ± 0.025
RGVPPPPWTPPP	0.731 ± 0.02
RIWRLLIIIIKK	0.565 ± 0.056
RKRKKISEIIAI	0.69 ± 0.039
RLPFPVVLFLLF	0.515 ± 0.026
RLVMAVRVAAGG	0.55975 ± 0.00038
RMLSLFFPLRTL	0.724 ± 0.024
RNWVVDGWRRFP	0.73543 ± 0.00011
RPCLSALRFRFF	0.727 ± 0.064
RPHPLHIPRRLA	0.692 ± 0.047

Sequence	protein stability index
RQINEKKKLYMI	0.727 ± 0.041
RRGLIFFLCCPA	0.472 ± 0.013
RRLYERNKNNKQ	0.729 ± 0.061
RRRRGGQSPALR	0.6928 ± 0.0059
RRTTIFDTKEPP	0.5752 ± 0.0014
RRVFPLIIVLLF	0.279 ± 0.016
RSCKSIRGIFVC	0.719 ± 0.022
RSFPCITVFIRA	0.50913 ± 0.00021
RSKWEKLDKIVS	0.681 ± 0.0091
RVCVFVLFGLCF	0.48 ± 0.0059
RWGLCFVHVTMF	0.215 ± 0.015
RWRLWVGWWVVG	0.601 ± 0.013
RYRVRIVVFGLV	0.59 ± 0.032
SCFCFRVLLCSF	0.402 ± 0.019
SCLFMLFPLVSV	0.529 ± 0.01
SCLLVVVSTSGN	0.611 ± 0.0019
SFFVCVRVFGCC	0.44 ± 0.0095
SFFWAMSLLCFV	0.549 ± 0.018
SFGLICFLILCG	0.372 ± 0.038
SFIVGYRWNNRN	0.7542 ± 0.0063
SFVVVFTFFFGC	0.408 ± 0.026
SGFLRFRGLVCY	0.503 ± 0.0067
SGFWVSVDVFFV	0.32 ± 0.015
SGLPLVILFLCL	0.625 ± 0.022
SGRATSSRTSEP	0.713 ± 0.0042
SGWGCRMVVCAG	0.299 ± 0.011

Sequence	protein stability index
SHPAPPSPPPSP	0.537 ± 0.014
SILFSYFCFFLL	0.586 ± 0.014
SLCPFLCILCFG	0.402 ± 0.0015
SLCVVIFFSSIT	0.468 ± 0.019
SLPVSPLVRLLA	0.611 ± 0.0096
SLRICACMTVSW	0.335 ± 0.0069
SLSALPRPPRLL	0.7323 ± 0.0002
SPPHSPSALPPP	0.732 ± 0.019
SPWSIHLILLQV	0.438 ± 0.018
SQCVVYLSVRFS	0.47856 ± 0.00019
SQKKKIKKYKET	0.706 ± 0.018
SREQANTVYRLI	0.7187 ± 0.0036
SRFFSCCVFPSF	0.781 ± 0.016
SRKRIVALMLSG	0.686 ± 0.032
SRNSSRYLLLVS	0.649 ± 0.0096
SRVGAGVVRGVG	0.5403 ± 0.0051
SRVHHLWAILVP	0.3712 ± 0.0019
SSGAVGLVIVVC	0.309 ± 0.0093
SSGRLRFISRIH	0.7487 ± 0.0033
SSVFLGWLIVCY	0.2851 ± 0.0027
SSVGLFVLLCLV	0.503 ± 0.07
STVGAWGRVGEG	0.484 ± 0.0078
SVFFRPVLICCA	0.0628 ± 0.0047
SVLAIWLTVTLK	0.197 ± 0.0027
SVLVSVVLFVRS	0.33663 ± 7.1e-05
SVSMYPKPHLIC	0.698 ± 0.034
